Reference: US20230365709A1 (published 2023)
One block for each binder: values may come before it.

Tests used:
[1] = biological target: T1, recombinant human NKp46 expressed on the surface of CHO cells (human, UniProt O76036 22-304); assay: flow cytometry, CHO-huNKp46 cells, apparent KD; SD 3.7
T1 construct: whole, on cells; also called huNKp46; CD355

[2] = biological target: T2, recombinant human CD16A (48R/158F) expressed on the surface of CHO cells (human, UniProt P08637 17-254); assay: flow cytometry, CHO-huCD16A cells, apparent KD; SD n.a.
T2 construct: also called huCD16A; CD16A (158F)

[3] = biological target: T3, recombinant human CD32A expressed on the surface of CHO cells (human, UniProt P12318 34-317); assay: flow cytometry, CHO-huCD32A cells, apparent KD; SD 64.3
T3 construct: whole, on cells; also called huCD32A
T3 sequence (looked up): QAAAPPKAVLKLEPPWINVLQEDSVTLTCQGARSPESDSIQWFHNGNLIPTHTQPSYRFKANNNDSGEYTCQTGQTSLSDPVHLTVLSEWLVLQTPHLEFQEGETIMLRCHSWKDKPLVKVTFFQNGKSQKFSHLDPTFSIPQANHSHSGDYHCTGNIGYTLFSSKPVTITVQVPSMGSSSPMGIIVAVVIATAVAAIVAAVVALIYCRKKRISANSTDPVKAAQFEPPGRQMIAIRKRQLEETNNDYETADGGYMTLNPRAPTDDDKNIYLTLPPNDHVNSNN

[4] = biological target: T4, recombinant human CD64 expressed on the surface of CHO cells (human, UniProt P12314 16-374); assay: flow cytometry, CHO-huCD64 cells, apparent KD; SD 6.6
T4 construct: whole, on cells; also called huCD64

[5] = biological target: T5, recombinant human NKG2D expressed on the surface of CHO cells (human, UniProt P26718 1-216); assay: flow cytometry, CHO-huNKG2D cells, apparent KD; SD 16.2
T5 construct: whole, on cells; also called huNKG2D; CD314
T5 sequence (looked up): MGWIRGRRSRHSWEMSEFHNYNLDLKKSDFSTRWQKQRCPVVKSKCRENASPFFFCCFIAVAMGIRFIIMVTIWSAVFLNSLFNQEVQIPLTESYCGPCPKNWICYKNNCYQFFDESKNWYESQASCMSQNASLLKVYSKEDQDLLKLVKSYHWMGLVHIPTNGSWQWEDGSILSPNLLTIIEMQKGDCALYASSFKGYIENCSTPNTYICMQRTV
Protocol: (§1) The CHO cells were incubated with serial dilutions of the indicated trispecific constructs and control constructs at 37° C., and cell surface bound antibodies were detected by FITC-conjugated goat anti-human IgG Fc and flow cytometric analysis. Measured median fluorescence intensity values were used to calculate apparent affinities (KD) by non-linear regression.

[6] = biological target: T4, recombinant human CD64 expressed on the …; assay: flow cytometry, CHO-huCD64 cells, apparent KD; SD 7.6
Protocol: as §1

[7] = biological target: T3, recombinant human CD32A expressed on …; assay: flow cytometry, CHO-huCD32A cells, apparent KD; SD n.a.
Protocol: as §1

[8] = biological target: T4, recombinant human CD64 expressed on the …; assay: flow cytometry, CHO-huCD64 cells, apparent KD; SD 7.7
Protocol: as §1

[9] = biological target: T5, recombinant human NKG2D expressed on …; assay: flow cytometry, CHO-huNKG2D cells, apparent KD; SD 6.8
Protocol: as §1

[10] = biological target: T1, recombinant human NKp46 expressed on …; assay: flow cytometry, CHO-huNKp46 cells, apparent KD; SD 1.9
[11] = biological target: T4, recombinant human CD64 expressed on the …; assay: flow cytometry, CHO-huCD64 cells, apparent KD; SD 5.8
[12] = biological target: T3, recombinant human CD32A expressed on …; assay: flow cytometry, CHO-huCD32A cells, apparent KD; SD 2169.4
[13] = biological target: T3, recombinant human CD32A expressed on …; assay: flow cytometry, CHO-huCD32A cells, apparent KD; SD 236.8
Protocol: as §1

[14] = biological target: T4, recombinant human CD64 expressed on the …; assay: flow cytometry, CHO-huCD64 cells, apparent KD; SD 3.4
Protocol: as §1

[15] = biological target: T4, recombinant human CD64 expressed on the …; assay: flow cytometry, CHO-huCD64 cells, apparent KD; SD 2.7
Protocol: as §1

[16] = biological target: T1, recombinant human NKp46 expressed on …; assay: flow cytometry, CHO-huNKp46 cells, apparent KD; SD 2.8
Protocol: as §1

[17] = biological target: T3, recombinant human CD32A expressed on …; assay: flow cytometry, CHO-huCD32A cells, apparent KD; SD 405.5
Protocol: as §1

T4 sequence (P12314 16-374): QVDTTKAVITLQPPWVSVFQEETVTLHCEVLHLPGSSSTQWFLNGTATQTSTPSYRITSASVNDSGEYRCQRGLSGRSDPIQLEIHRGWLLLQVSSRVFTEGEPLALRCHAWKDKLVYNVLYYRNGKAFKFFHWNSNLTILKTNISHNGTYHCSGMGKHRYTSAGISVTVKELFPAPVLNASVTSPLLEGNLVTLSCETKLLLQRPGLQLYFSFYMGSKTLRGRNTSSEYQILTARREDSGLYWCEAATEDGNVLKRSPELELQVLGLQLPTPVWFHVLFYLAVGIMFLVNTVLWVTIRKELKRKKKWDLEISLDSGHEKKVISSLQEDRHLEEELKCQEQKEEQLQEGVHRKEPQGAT
T1 sequence (O76036 22-304): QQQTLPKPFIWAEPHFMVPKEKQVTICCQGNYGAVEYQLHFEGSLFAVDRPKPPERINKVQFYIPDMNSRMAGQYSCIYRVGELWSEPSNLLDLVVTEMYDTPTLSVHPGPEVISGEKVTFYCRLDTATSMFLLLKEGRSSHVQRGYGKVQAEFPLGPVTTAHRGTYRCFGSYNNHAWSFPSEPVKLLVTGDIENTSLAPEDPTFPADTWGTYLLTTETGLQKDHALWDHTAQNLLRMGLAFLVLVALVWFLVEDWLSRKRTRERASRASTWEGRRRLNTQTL

B2: AIG-1scFv-5 (ComparatorB_1) (bispecific antibody, human IgG1, kappa)
heavy 1: not shown
light: DIVMTQSPATLSLSPGERATLSCRSSKSLQNVNGNTYLYWFQQKPGQSPQLLIYRMSNLNSGVPDRFSGSGSGTEFTLTISSLEPEDFAVYYCMQHLEYPITFGAGTKLEIKRTVAAPSVFIFPPSDEQLKSGTASVVCLLNNFYPREAKVQWKVDNALQSGNSQESVTEQDSKDSTYSLSSTLTLSKADYEKHKVYACEVTHQGLSSPVTKSFNRGEC
heavy 2: not shown
notes: CD19, wt Fc, NKG2D(KYK-2.0)
- Kd [5]: 28.5 nM
- Kd [6]: 27.4 nM
- Kd [7]: 2470 nM

B3: AIG-1scFv-6 (ComparatorB_2) (bispecific antibody, human IgG1, kappa)
heavy 1: not shown
light: DIVMTQSPATLSLSPGERATLSCRSSKSLQNVNGNTYLYWFQQKPGQSPQLLIYRMSNLNSGVPDRFSGSGSGTEFTLTISSLEPEDFAVYYCMQHLEYPITFGAGTKLEIKRTVAAPSVFIFPPSDEQLKSGTASVVCLLNNFYPREAKVQWKVDNALQSGNSQESVTEQDSKDSTYSLSSTLTLSKADYEKHKVYACEVTHQGLSSPVTKSFNRGEC
heavy 2: not shown
notes: CD19, wt Fc, NKG2D(ADI-27743)
- Kd [8]: 22.8 nM
- Kd [9]: 22.3 nM
- Kd [7]: 2530 nM

B5: 1Fab-AFc-1Fab-5 (bispecific antibody, human IgG1, kappa)
chain 1: DIVMTQSPATLSLSPGERATLSCRSSKSLQNVNGNTYLYWFQQKPGQSPQLLIYRMSNLNSGVPDRFSGSGSGTEFTLTISSLEPEDFAVYYCMQHLEYPITFGAGTKLEIKRTVAAPSVFIFPPSDEQLKSGTASVVCLLNNFYPREAKVQWKVDNALQSGNSQESVTEQDSKDSTYSLSSTLTLSKADYEKHKVYACEVTHQGLSSPVTKSFNRGECDKTHTCPPCPAPELLGGPDVFLFPPKPKDTLMISRTPEVTCVVVDVSHEDPEVKFNWYVDGVEVHNAKTKPREEQYNSTYRVVSVLTVLHQDWLNGKEYKCKVSNKALPAPEEKTISKAKGQPREPQVYTLPPSREEMTKNQVSLWCLVKGFYPSDIAVEWESNGQPENNYKTTPPVLDSDGSFFLYSKLTVDKSRWQQGNVFSCSVMHEALHNHYTQKSLSLSPGK
chain 2: EVQLVESGGGLVKPGGSLKLSCAASGYTFTSYVMHWVRQAPGKGLEWIGYINPYNDGTKYNEKFQGRVTISSDKSISTAYMELSSLRSEDTAMYYCARGTYYYGTRVFDYWGQGTLVTVSSASTKGPSVFPLAPSSKSTSGGTAALGCLVKDYFPEPVTVSWNSGALTSGVHTFPAVLQSSGLYSLSSVVTVPSSSLGTQTYICNVNHKPSNTKVDKKVEPKSCDKTHTCPPCPAPELLGGPDVFLFPPKPKDTLMISRTPEVTCVVVDVSHEDPEVKFNWYVDGVEVHNAKTKPREEQYNSTYRVVSVLTVLHQDWLNGKEYKCKVSNKALPAPEEKTISKAKGQPREPQVYTLPPSREEMTKNQVSLSCAVKGFYPSDIAVEWESNGQPENNYKTTPPVLDSDGSFFLVSKLTVDKSRWQQGNVFSCSVMHEALHNHYTQKSLSLSPGSTGSQVQLQQSGPELVKPGASVKMSCKASGYTFTDYVINWGKQRSGQGLEWIGEIYPGSGTNYYNEKFKAKATLTADKSSNIAYMQLSSLTSEDSAVYFCARRGRYGLYAMDYWGQGTSVTVSSRTVAAPSVFIFPPSDEQLKSGTASVVCLLNNFYPREAKVQWKVDNALQSGNSQESVTEQDSKDSTYSLSSTLTLSKADYEKHKVYACEVTHQGLSSPVTKSFNRGEC
chain 3: DIQMTQTTSSLSASLGDRVTISCRASQDISNYLNWYQQKPDGTVKLLIYYTSRLHSGVPSRFSGSGSGTDYSLTINNLEQEDIATYFCQQGNTRPWTFGGGTKLEIKASTKGPSVFPLAPSSKSTSGGTAALGCLVKDYFPEPVTVSWNSGALTSGVHTFPAVLQSSGLYSLSSVVTVPSSSLGTQTYICNVNHKPSNTKVDKKVEPKSCDKTH
notes: CD19, Fc-enhanced Fc, NKp46(NKp46-1); also called ComparatorA_5
- Kd [13]: 1050 nM
- Kd [14]: 15.9 nM

B6: 1Fab-AFc-1Fab-6 (bispecific antibody, human IgG1, kappa)
chain 1: DIVMTQSPATLSLSPGERATLSCRSSKSLQNVNGNTYLYWFQQKPGQSPQLLIYRMSNLNSGVPDRFSGSGSGTEFTLTISSLEPEDFAVYYCMQHLEYPITFGAGTKLEIKRTVAAPSVFIFPPSDEQLKSGTASVVCLLNNFYPREAKVQWKVDNALQSGNSQESVTEQDSKDSTYSLSSTLTLSKADYEKHKVYACEVTHQGLSSPVTKSFNRGECDKTHTCPPCPAPELLGGPDVFLFPPKPKDTLMISRTPEVTCVVVDVSHEDPEVKFNWYVDGVEVHNAKTKPREEQYNSTYRVVSVLTVLHQDWLNGKEYKCKVSNKALPAPEEKTISKAKGQPREPQVYTLPPSREEMTKNQVSLWCLVKGFYPSDIAVEWESNGQPENNYKTTPPVLDSDGSFFLYSKLTVDKSRWQQGNVFSCSVMHEALHNHYTQKSLSLSPGK
chain 2: EVQLVESGGGLVKPGGSLKLSCAASGYTFTSYVMHWVRQAPGKGLEWIGYINPYNDGTKYNEKFQGRVTISSDKSISTAYMELSSLRSEDTAMYYCARGTYYYGTRVFDYWGQGTLVTVSSASTKGPSVFPLAPSSKSTSGGTAALGCLVKDYFPEPVTVSWNSGALTSGVHTFPAVLQSSGLYSLSSVVTVPSSSLGTQTYICNVNHKPSNTKVDKKVEPKSCDKTHTCPPCPAPELLGGPDVFLFPPKPKDTLMISRTPEVTCVVVDVSHEDPEVKFNWYVDGVEVHNAKTKPREEQYNSTYRVVSVLTVLHQDWLNGKEYKCKVSNKALPAPEEKTISKAKGQPREPQVYTLPPSREEMTKNQVSLSCAVKGFYPSDIAVEWESNGQPENNYKTTPPVLDSDGSFFLVSKLTVDKSRWQQGNVFSCSVMHEALHNHYTQKSLSLSPGSTGSEVQLQQSGPELVKPGASVKISCKTSGYTFTEYTMHWVKQSHGKSLEWIGGISPNIGGTSYNQKFKGKATLTVDKSSSTAYMELRSLTSEDSAVYYCARRGGSFDYWGQGTTLTVSSRTVAAPSVFIFPPSDEQLKSGTASVVCLLNNFYPREAKVQWKVDNALQSGNSQESVTEQDSKDSTYSLSSTLTLSKADYEKHKVYACEVTHQGLSSPVTKSFNRGEC
chain 3: DIVMTQSPATLSVTPGDRVSLSCRASQSISDYLHWYQQKSHESPRLLIKYASQSISGIPSRFSGSGSGSDFTLSINSVEPEDVGVYYCQNGHSFPLTFGAGTKLELKASTKGPSVFPLAPSSKSTSGGTAALGCLVKDYFPEPVTVSWNSGALTSGVHTFPAVLQSSGLYSLSSVVTVPSSSLGTQTYICNVNHKPSNTKVDKKVEPKSCDKTH
notes: CD19, Fc-enhanced Fc, NKp46(NKp46-3); also called ComparatorA_6
- Kd [15]: 12.6 nM
- Kd [16]: 45.8 nM
- Kd [17]: 1010 nM

More lines, now with the values ahead:

- Kd [1]: 9.8 nM
- Kd [2]: 5190 nM
- Kd [3]: 374 nM
- Kd [4]: 34.1 nM
B1: scFv-IgAb-396 (bispecific antibody)
chain 1: not shown
chain 2: DIVMTQSPATLSLSPGERATLSCRSSKSLQNVNGNTYLYWFQQKPGQSPQLLIYRMSNLNSGVPDRFSGSGSGTEFTLTISSLEPEDFAVYYCMQHLEYPITFGAGTKLEIKRTVAAPSVFIFPPSDEQLKSGTASVVCLLNNFYPREAKVQWKVDNALQSGNSQESVTEQDSKDSTYSLSSTLTLSKADYEKHKVYACEVTHQGLSSPVTKSFNRGEC

- Kd [10]: 5.7 nM
- Kd [11]: 42.3 nM
- Kd [12]: 5630 nM
B4: scFv-IgAb-395 (bispecific antibody)
chain 1: not shown
chain 2: DIVMTQSPATLSLSPGERATLSCRSSKSLQNVNGNTYLYWFQQKPGQSPQLLIYRMSNLNSGVPDRFSGSGSGTEFTLTISSLEPEDFAVYYCMQHLEYPITFGAGTKLEIKRTVAAPSVFIFPPSDEQLKSGTASVVCLLNNFYPREAKVQWKVDNALQSGNSQESVTEQDSKDSTYSLSSTLTLSKADYEKHKVYACEVTHQGLSSPVTKSFNRGEC
